The text below walks through data of US20200385445A1 (COMPUGEN, published 2020).

Sequences and labels used below:
B1: CPA.7.010 human IgG1 (antibody, V domains shown)
VH: EVQLVESGGGLVQPGRSLRLSCAASGFTFSSYAMHWVRQAPGKGLEWVAVISYDGSNKYYADSVKGRFTISRDNSKNTLYLQMNSLRAEDTAVYYCASSPIGYSYGYWGGMDVWGQGTTVTVSS
VL: QAVLTQPASLSASPGASASLTCTLRSGIDVRTNKIFWYQVKPGSPPQHLLTFQSDSDKQQGSGVPSRFSGSKDASANAGILIISGLQSEDEADYYCLIWHTSGWVFGGGTQLTVLG
B2: CPA.7.017 human IgG1 (antibody, V domains shown)
VH: QVQLVQSGAEVKKPGSSVKVSCKASGGTFNNYGISWVRQAPGKGLEWMGQIIPLFGTTKYAQKFQGRVTIAADEPTSTAYMELGSLRSEDTAIYYCARDRMAADGMAVFDYWGQGTLVTVSS
VL: QSVLTQPPSVSGTPGQKVIISCSGSSSNIGRHFVFWYQQLPGTAPKLLIYKNDERPSGVPDRFSGSKSGTSASLAVSGLRSEDEADYYCSSWDAALNGVVFGGGTKLTVLG
B3: CPA.7.004 human IgG1 (antibody, V domains shown)
VH: EVQLVQSGAEVKKPGASVKVSCKVSGYTLTELSMHWVRQAPGKGLEWMGGFDPEDGETIYAQKFQGRVTMTEDTSTDTAYMELSSLRSEDTAVYYCATVSRVRGVINYYYYMDVWGKGTTVTVSS
VL: DVVMTQSPLSLPVTPGEPASISCRSSQSLLYRNGNNYLDWYLQKPGQSPQLLIYLGSNRASGVPDRFSGSGSGTDFTLKISRVEAEDVGVYYCMQALQTPPTFGGGTKLEIKR
B4: CPA.7.014 human IgG1 (antibody, V domains shown)
VH: EVQLVQSGAEVKKPGASVKVSCKVSGYTLTELSMHWVRQAPGKGLEWMGGFDPEDGETIYAQKFQGRVTMTEDTSTDTAYMELSSLRSEDTAVYYCATGVTTYYYYGMDVWGQGTTVTVSS
VL: DVVMTQSPLSLPVTPGEPASISCRSSQSLLYSNGNNFLDWYLQKPGQSPRLLISLGSNRASGVPDRFSGSGSGTDFTLKISRVEAEDVGIYYCMQALQTPPTFGQGTKVEIKR
B5: CPA.7.022 human IgG1 (antibody, V domains shown)
VH: EVQLVQSGAEVKKPGASVKVSCKVSGYTLTELSMHWVRQAPGKGLEWMGGFDPEDGETIYAQKFQGRVTMTEDTSTDTAYMELSSLRSEDTAVYYCATGVPAAIGVYYYYYYMDVWGKGTTVTVSS
VL: DVVMTQSPLSLPVTPGEPASISCRSSQSLLYSNGYNYLDWYLQKPGQSPQLLISLGSNRASGVPDRFSGSGSGTDFTLKISRVEAEDVGVYYCMQALQSPVTFGGGTKVEIKR
B6: CPA.7.023 human IgG1 (antibody, V domains shown)
VH: EVQLVQSGAEVKKPGASVKVSCKVSGYTLTELSMHWVRQAPGKGLEWMGGFDPEDGETIYAQKFQGRVTMTEDTSTDTAYMELSSLRSEDTAVYYCATDSRDGPAARGGYYYYMDVWGQGTTVTVSS
VL: DVVMTQSPLSLPVTLGQPASISCRSSQSLLYINGYNYLDWYLQKPGQSPQLLIYLGSNRASGVPDRFSGSGSGTDFTLKISRVEAEDVGVYYCMQALQTPPTFGQGTKVEIKR
B7: CPA.7.009 human IgG1 (antibody, V domains shown)
VH: EVQLVQSGAEVKKPGASVKVSCKVSGYTLTELSMHWVRQAPGKGLEWMGGFDPEDGETIYAQKFQGRVTMTEDTSTDTAYMELSSLRSEDTAVYYCATAKPGIAVAGQNYYYYYMDVWGKGTTVTVSS
VL: DVVMTQSPLSLPVTPGEPASISCRSSQSLLYRNGNNYLDWYLQKPGQSPQLLIYLGSNRASGVPDRFSGSGSGTDFTLKISRVEAEDVGVYYCMQALQTPPTFGGGTKLEIKR
B8: CPA.7.011 human IgG1 (antibody, V domains shown)
VH: EVQLVQSGAEVKKPGASVKVSCKVSGYTLTELSMHWVRQAPGKGLEWMGGFDPEDGETIYAQKFQGRVTMTEDTSTDTAYMELSSLRSEDTAVYYCATGPAAAGVGYYYYMDVWGKGTTVTVSS
VL: DVVMTQSPLSLPVTPGEPASISCRSSQSLLYRNGYNYLDWYLQKPGQSPQLLIYLGSNRASGVPDRFSGSGSGTDFTLKISRVEAEDVGVYYCMQALQTPPTFGQGTKVEIKR
B9: CPA.7.024 human IgG1 (antibody, V domains shown)
VH: EVQLVQSGAEVKKPGSSVKVSCKASGGTFSSYAISWVRQAPGQGLEWMGGIIPIFGTANYAQKFQGRVTITADESTSTAYMELSSLRSEDTAVYYCARDAYYYDSSGYYNPDAFDIWGQGTMVTVSS
VL: DVVMTQSPLSLPVTPGEPASISCRSSQSLLHSNGYNYLDWYLQKPGQSPQLLIYLGSSRASGVPDRFSGSVSGTDFTLKISRVEAEDVGVYYCMQGLQTPRTFGRGTKLEIKR
B10: CPA.7.040 human IgG1 (antibody, V domains shown)
VH: EVQLVQSGAEVKKPGASVKVSCKVSGYTLTELSMHWVRQAPGKGLEWMGGFDPEDGETIYAQKFQGRVTMTEDTSTDTAYMELSSLRSEDTAVYYCATGVPAAIGVYYYYYYMDVWGKGTTVTVSS
VL: DVVMTQSPLSLPVTPGEPASISCRSSQSLLYRNGYNYLDWYLQKPGQSPQLLIYWGSYRASGVPDRFSGSGSGTDFTLKISRVEAEDVGVYYCMQAVQNPPTFGQGTKVDIKR
B11: CPA.7.047 human IgG1 (antibody, V domains shown)
VH: EVQLVQSGAEVKKPGASVKVSCKVSGYTLTELSMHWVRQAPGKGLEWMGGFDPEDGETIYAQKFQGRVTMTEDTSTDTAYMELSSLRSEDTAVYYCATAFPEATISYYYYMDVWGKGTTVTVSS
VL: DVVMTQSPLSLPVTPGEPASISCRSSQSLLYRNGYNYLDWYLQKPGQSPQLLIYWGSYRASGVPDRFSGSGSGTDFTLKISRVEAEDVGVYYCMQAVQNPPTFGQGTKVEIKR
B12: CPA.7.016 human IgG1 (antibody, V domains shown)
VH: EVQLVQSGAEVKKPGSSVKVSCKTSGGTFSSSAISWVRQAPGQGFEWMGGIIPIYGITDYAQKFQGRVTITTDESTSTAYMELSSLTSEDTAVYYCARDDTARRVRGVPYYYYYAMDVWGQGTTVTVSS
VL: EIVLTQSPGTLSLSPGERATLSCRASQSVSSYLAWYQQKPGQAPRLLIYDASNRATGIPARFSGSGSGTDFTLTISSLQSEDFAVYYCQQYDDWPQTFGQGTRLEIKR
B13: CPA.7.033 human IgG1 (antibody, V domains shown)
VH: QVQLVQSGAEVKKPGSSVKVSCKASGGTFSSSAISWVRQAPGQGFEWMGGIIPIYGITDYAQKFQGRVTITTDESTSTAYMELSSLTSEDTAVYYCARDDTARRVRGVPYYYYYAMDVWGQGTTVTVSS
VL: ETTLTQSPAFMSATPGDEVNISCKASQDIDDDVSWYQQKPGGAPIFLIQEASTLVPGIPPRFSGSGFGTDFTLTIKNMESEDAAYYFCLQHDNLPLTFGGGTKVDIKR
B14: CPA.7.019 human IgG1 (antibody, V domains shown)
VH: QVQLQESGPGLVKSSETLSLTCSVSGGSISNSNYYWGWIRQPPGKGLEWIGGIYYSGSTYYNPSLESRVTISEDTSKNQISLKLSSVTAADTAVYYCARGAWELSLGDWFDPWGPGTLVTVSS
VL: QSVLTQPPSVSGAPGQRVTISCTGSSSNIGAGYDIQWYQQLPGTAPKLLIYGNNNRPSGVPDRFSGSRSGTSASLAITGLQAEDEADYYCQSYDSSLSVYVVFGGGTQLTVLG
B15: CPA.7.018 human IgG1 (antibody, V domains shown)
VH: EVQLVQSGAEVKKPGASVKVSCKVSGYTLTELSMHWVRQAPGKGLEWMGGFDPEDGETIYAQKFQGRVTMTEDTSTDTAYMELSSLRSEDTAVYYCATEVPMVRGARRYYYYMDVWGKGTTVTVSS
VL: DVVMTQSPLFLAVTPGEPASISCRSSQTLLYINENNYLDWYVQKPGQSPQLLIYLGSTRASGVPDRFSGGGSGTDFTLTISRVEAEDVGLYYCMQGLQTPPTFGQGTRLEIKR
B16: CPA.7.034 human IgG1 (antibody, V domains shown)
VH: EVQLVQSGAEVKKPGASVKVSCKVSGYTLTELSMHWVRQAPGKGLEWMGGFDPEDGETIYAQKFQGRVTMTEDTSTDTAYMELSSLRSEDTAVYYCATEDPGPVAGPYYYYGMDVWGQGTTVTVSS
VL: DVVMTQSPLVLPVTPGEPASISCRSSQSLLYINGYHYLDWYVQRPGQSPQLLIFLGSTRASGVPDRFSGSGSGTDFTLEISKVEAEDVGIYFCMQALQTPPTFGGGTKVEIKR
notes: also called CPA.7.34
B17: CPA.7.015 human IgG1 (antibody, V domains shown)
VH: QITLKESGGGVVQPGGSLRLSCAASGFTFSSYGMHWVRQAPGKGLEWVAFIRYDGSNKYYADSVKGRFTISRDNSKNTLYLQMNSLRAEDTAVYYCARDLFDFWWDGMDVWGQGTTVTVSS
VL: EIVLTQSPGTLSLSPGEKATLSCRVSQSVSSMYLAWYQQKPGQAPRLLIYGASYRATGIPDRFSGSGSGTDFNLTISRLEPEDFAVYYCQQYVSSPMYTFGLGTKLEIKR
B18: CPA.7.012 human IgG1 (antibody, V domains shown)
VH: EVQLVETGGGLIQPGRSLRLSCAASGFTFSSYAMHWVRQAPGKGLEWVAVISYDGSNKYYADSVKGRFTISRDNSKNTLYLQMNSLRAEDTAVYYCARDVMVYCSSTSCYFYGMDVWGQGTTVTVSS
VL: DIQMTQSPSSLSASVGDRVTVTCQASQDIRDYLNWYQKKPGKAPKLLIYDASNLEAGVPSRFSGSGSGTDFTFTISGLQPEDVATYYCQQFENLPITFGQGTRLEIKR

In the assay the target is T1, human PVRIG (Poliovirus Receptor Related Immunoglobulin Domain Containing Protein), full length on cells (human, UniProt Q6DKI7 41-326).
T1 construct: whole, on cells; Over-expressed on HEK293 (some pools flag-tagged) or endogenous on Jurkat, CA46, T cells, NK cells, TILs; also called hPVRIG; HEK hPVRIG
T1 sequence (looked up): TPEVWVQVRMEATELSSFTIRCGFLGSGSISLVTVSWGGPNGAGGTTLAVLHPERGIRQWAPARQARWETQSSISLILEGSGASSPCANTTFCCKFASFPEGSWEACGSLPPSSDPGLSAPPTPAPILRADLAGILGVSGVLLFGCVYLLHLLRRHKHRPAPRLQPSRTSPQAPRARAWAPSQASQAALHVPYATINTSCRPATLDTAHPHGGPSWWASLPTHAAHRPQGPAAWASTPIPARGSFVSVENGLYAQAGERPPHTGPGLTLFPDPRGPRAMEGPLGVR
The assay is described as follows: FACS dose titration on PVRIG over-expressing HEK293 cells. How it is done: FACS screening of the reformatted antibodies was done similarly to the PPE based screen described herein, except that a dose-dependent titration of the purified antibodies was performed. The human PVRIG over-expressing HEK293 cells, or the un-transfected HEK293 cells, were incubated with varying concentrations (0-10 μg/ml) of the anti PVRIG antibodies or isotype controls in FACS buffer at 4° C. for 60 mins. […] Cells were washed twice and re-suspended in a final volume of 80 μl of FACS buffer and Propidium Iodide (Biolegend cat #421301) diluted 1:1000. Samples were analyzed using an Intellicyt HTFC screening system (Intellicyt). Data was analyzed using FlowJo (DeNovo), exported to Excel (Microsoft) and plotted in GraphPad Prism (GraphPad Software, Inc.).
All unique ELISA and FACS binders were reformatted for expression as human IgG1 molecules in Expi293 cells. […] These reformatted antibodies were tested for retained binding to PVRIG over-expressing HEK293 cells alongside an irrelevant human IgG1 isotype control. All antibodies were also tested against un-transfected HEK293 cells.
A word on the Kd: it is a measure of binding affinity in units of concentration. Lower therefore signals tighter binding. As to B1, binding was characterised by a dissociation constant (Kd) of 21.9 nM. This counts as double-digit nanomolar.

Consider B2, for which the Kd is 1.82 nM.

B3 displayed a dissociation constant (Kd) of 21.7 nM.

The molecule B4 showed a Kd of 2.04 nM.

Regarding B5, the dissociation constant Kd was 4.17 nM.

As for B6, the Kd stood at 4.08 nM.

Take B7: the Kd worked out at 33 nM.

In turn, B8 returned a dissociation constant Kd of 66 nM. Against the preceding molecule, the Kd is about 2-fold higher.

As for B9, the affinity, expressed as Kd, was 9.08 nM.

B10 had a Kd of 0.79 nM.

Consider B11, for which binding was put at a Kd of 5.36 nM. Compared with the last molecule, the Kd is about 6.8-fold higher.

B12: the Kd came out at 22 nM.

Molecule B13 displayed a Kd of 12.8 nM.

In turn, B14 gave a Kd of 0.45 nM.

With B15, the equilibrium dissociation constant (Kd) was found to be 9.29 nM.

In turn, B16 registered a Kd of 14.2 nM.

The molecule B17 showed a Kd of 1.34 nM. Compared with the last molecule, the Kd is about 11-fold lower.

On to B18, for which binding was characterised by a dissociation constant (Kd) of 0.3 nM.
